From paper doi:10.1101/133777 (bioRxiv, 2017) come the findings set out here.

The assay concerns the target 3HA-3FLAG-SPAK (mouse, UniProt Q9Z1W9 1-556). Nature of the assay: pull-down.

B1: BioEase-FBXL5 (natural protein)
chain: MAPFPEEVDVFTAPHWRMKQLVGLYCDKLSKTNFSNNNDFRALLQSLYATFKEFKMHEQIENEYIIGLLQQRSQTIYNVHSDNKLSEMLSLFEKGLKNVKNEYEQLNYAKQLKERLEAFTRDFLPHMKEEEEVFQPMLMEYFTYEELKDIKKKVIAQHCSQKDTAELLRGLSLWNHAEERQKFFKYSVDEKSDKEAEVSEHSTGITHLPPEVMLSIFSYLNPQELCRCSQVSMKWSQLTKTGSLWKHLYPVHWARGDWYSGPATELDTEPDDEWVKNRKDESRAFHEWDEDADIDESEESAEESIAISIAQMEKRLLHGLIHNVLPYVGTSVKTLVLAYSSAVSSKMVRQILELCPNLEHLDLTQTDISDSAFDSWSWLGCCQSLRHLDLSGCEKITDVALEKISRALGILTSHQSGFLKTSTSKITSTAWKNKDITMQSTKQYACLHDLTNKGIGEEIDNEHPWTKPVSSENFTSPYVWMLDAEDLADIEDTVEWRHRNVESLCVMETASNFSCSTSGCFSKDIVGLRTSVCWQQHCASPAFAYCGHSFCCTGTALRTMSSLPESSAMCRKAARTRLPRGKDLIYFGSEKSDQETGRVLLFLSLSGCYQITDHGLRVLTLGGGLPYLEHLNLSGCLTITGAGLQDLVSACPSLNDEYFYYCDNINGPHADTASGCQNLQCGFRACCRSGE
modifications: biotin (biotinylated FBXL5, BioEase tag)
B1: the binding result is recorded as “binds”.
